The values below come from US20140127225A1 (NEOTOPE BIOSCIENCES, published 2014).

The target of test [1] is T1, human iC3b (purified; Complement Technology #A115) (human, UniProt P01024 23-667).
T1 construct: range 23-667; Bought purified protein; chains held together by disulfide bonds; also called purified human iC3b
Briefly: assay not described.

The target in test [2] is T1, human iC3b (purified; Complement …). Description: direct ELISA, plate coated with 10 ug/ml iC3b, goat anti-human-HRP, ABTS, OD405. How it is done:
Costar RIA/EIA (Costar #3590) plate was coated with 100 ul/well of 10 ug/ml iC3b (Complement Technologies) at 4 degree overnight. At day 2, the plate was washed 5 times with washing buffer (TPBS+0.05% Tween 20) and blocked with 100 ul blocking buffer (PBS containing 1.5% BSA) per well for 1 hour at room temperature. Then the plate was washed 5 times with washing buffer and incubated with 100 ul per well of testing antibodies as indicated in the figure. After 1 hour of incubation at room temperature, the plate was washed again for 5 times with washing buffer and incubated with 1:4000 diluted Goat anti human-HRP (Jackson Immunoresearch, Code 109-036-098, lot 99937) in 100 ul blocking buffer per well.

For test [3] the target is unchanged. Description: Biacore; reference C3. On the procedure:
(§1) A preliminary Biacore assay was done with four concentrations of either iC3b or one of the two potential cross-reactive complement species (e.g., C3b or C3) to assess relative cross-reactivity. Unlike ELISA, a two-fold difference in KD is not sufficient to establish specificity in the Biacore assay. An anti-mouse CM5 chip was prepared following manufacture protocol. Three antibodies (including 6G1) were captured at levels such that Rmax would fall between 25 and 50 RU. Four concentrations of either iC3b or cross-reacting protein were used. Both were from Complement Technologies as described above.

Test [4] has the same target. Description: Biacore; reference C3b.
For test [5] the target is unchanged. Description: sandwich ELISA; antigen captured by chicken anti-C3; reference C3 or C3b. From the text:
For secondary screening, C3, C3b and iC3b were used for testing cross-reactivity. The plate was coated with chicken anti-C3 antibody (LeeBio #CC3-80A) as the capture antibody. For primary screening, only iC3b was used for antigen capture. For antibody characterization, all C3 proteins (C3 (Complement Technology #A113); C3b (Complement Technology #A114); and iC3b (Complement Technology #A115)) were used for antigen capture. Supernatants from cells, control antibody, mouse anti-human iC3b (the A209 antibody (Quidel)), were used as detecting antibodies, respectively. Goat anti-mouse-HRP (Jackson ImmunoResearch #115-035-164) was used as the secondary Antibody. 1-Step ABTS (Thermo #37615) was used as the substrate.
The sandwich ELISA was performed for the two mice in Example 3. First, cell supernatants were only tested for binding to iC3b. C3, C3b, and iC3b were used in the secondary screening for testing cross-reactivity.

The target is the same in test [6]. Briefly: Biacore; antibody captured on anti-mouse CM5 chip, four concentrations of antigen. On the procedure: as §1
The target of test [7] is T2, human C3 (purified; Complement Technology #A113) (human, UniProt P01024 23-667; P01024 672-1663).
T2 construct: range 23-667;range 672-1663; Bought purified protein
T2 sequence (P01024 23-667 limits assumed, form in doubt, chain 1 of 2): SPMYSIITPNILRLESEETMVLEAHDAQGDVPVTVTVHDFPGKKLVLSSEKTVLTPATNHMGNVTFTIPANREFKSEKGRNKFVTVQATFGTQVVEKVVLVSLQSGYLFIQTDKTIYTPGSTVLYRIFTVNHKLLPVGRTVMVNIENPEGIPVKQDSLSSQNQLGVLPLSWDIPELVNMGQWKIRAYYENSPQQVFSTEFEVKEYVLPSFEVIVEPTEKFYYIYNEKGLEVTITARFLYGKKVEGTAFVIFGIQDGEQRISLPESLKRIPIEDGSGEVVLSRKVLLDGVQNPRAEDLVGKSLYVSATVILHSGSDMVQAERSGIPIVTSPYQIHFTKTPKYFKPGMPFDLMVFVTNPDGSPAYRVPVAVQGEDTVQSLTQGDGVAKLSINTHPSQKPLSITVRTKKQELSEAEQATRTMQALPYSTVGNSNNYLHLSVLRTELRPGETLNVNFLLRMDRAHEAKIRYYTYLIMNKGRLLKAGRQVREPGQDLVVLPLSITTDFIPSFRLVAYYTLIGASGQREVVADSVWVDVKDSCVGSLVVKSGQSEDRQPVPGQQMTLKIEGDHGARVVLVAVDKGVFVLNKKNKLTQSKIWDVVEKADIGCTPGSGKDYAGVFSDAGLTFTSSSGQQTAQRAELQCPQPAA
T2 sequence (P01024 672-1663 limits assumed, form in doubt, chain 2 of 2): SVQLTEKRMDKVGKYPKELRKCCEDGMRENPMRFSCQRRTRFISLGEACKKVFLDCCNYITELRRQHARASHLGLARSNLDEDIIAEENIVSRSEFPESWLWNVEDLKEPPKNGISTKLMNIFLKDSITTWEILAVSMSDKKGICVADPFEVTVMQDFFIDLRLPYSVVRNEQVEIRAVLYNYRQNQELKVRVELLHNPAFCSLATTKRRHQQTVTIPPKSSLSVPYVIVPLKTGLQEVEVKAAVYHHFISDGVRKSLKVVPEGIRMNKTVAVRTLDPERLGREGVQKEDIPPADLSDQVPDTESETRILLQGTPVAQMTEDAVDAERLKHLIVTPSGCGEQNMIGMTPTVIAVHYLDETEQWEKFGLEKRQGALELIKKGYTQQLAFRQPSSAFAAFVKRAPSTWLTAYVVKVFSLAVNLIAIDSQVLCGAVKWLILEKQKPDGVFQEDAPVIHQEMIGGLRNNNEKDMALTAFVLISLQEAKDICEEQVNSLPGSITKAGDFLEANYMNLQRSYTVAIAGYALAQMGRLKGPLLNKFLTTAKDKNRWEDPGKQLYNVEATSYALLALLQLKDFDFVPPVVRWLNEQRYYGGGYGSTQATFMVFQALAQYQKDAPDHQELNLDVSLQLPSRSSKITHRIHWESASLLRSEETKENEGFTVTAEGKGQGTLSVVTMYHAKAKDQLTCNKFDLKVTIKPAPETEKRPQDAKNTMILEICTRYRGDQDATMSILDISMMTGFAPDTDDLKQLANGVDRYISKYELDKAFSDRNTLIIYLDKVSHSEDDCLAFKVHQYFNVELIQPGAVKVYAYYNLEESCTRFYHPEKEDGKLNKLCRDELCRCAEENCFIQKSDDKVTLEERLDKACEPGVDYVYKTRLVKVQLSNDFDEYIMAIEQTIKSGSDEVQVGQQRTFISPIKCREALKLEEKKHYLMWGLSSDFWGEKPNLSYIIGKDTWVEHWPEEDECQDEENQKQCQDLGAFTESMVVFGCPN
Description: Biacore; antibody captured on anti-mouse CM5 chip, four concentrations of antigen; Biacore; 6G1 captured on chip, C3 in solution: weak binding.

For test [8], the target named is T2, human C3 (purified; Complement …). Briefly: Biacore; antibody captured on anti-mouse CM5 chip, four concentrations of antigen; Biacore; 6G1 captured on chip, C3 in solution: weak binding, >10x weaker than iC3b.
Test [9] concerns the target T1, human iC3b (purified; Complement …). Description: sandwich ELISA; reference C3b.

Substitutions are numbered along the chain they refer to.

T1 sequence (P01024 23-667 limits assumed, chain 1 of 3): as the sequence (P01024 23-667 limits assumed, form in doubt, chain 1 of 2) above
T1 sequence (P01024 749-1303 limits assumed, chain 2 of 3): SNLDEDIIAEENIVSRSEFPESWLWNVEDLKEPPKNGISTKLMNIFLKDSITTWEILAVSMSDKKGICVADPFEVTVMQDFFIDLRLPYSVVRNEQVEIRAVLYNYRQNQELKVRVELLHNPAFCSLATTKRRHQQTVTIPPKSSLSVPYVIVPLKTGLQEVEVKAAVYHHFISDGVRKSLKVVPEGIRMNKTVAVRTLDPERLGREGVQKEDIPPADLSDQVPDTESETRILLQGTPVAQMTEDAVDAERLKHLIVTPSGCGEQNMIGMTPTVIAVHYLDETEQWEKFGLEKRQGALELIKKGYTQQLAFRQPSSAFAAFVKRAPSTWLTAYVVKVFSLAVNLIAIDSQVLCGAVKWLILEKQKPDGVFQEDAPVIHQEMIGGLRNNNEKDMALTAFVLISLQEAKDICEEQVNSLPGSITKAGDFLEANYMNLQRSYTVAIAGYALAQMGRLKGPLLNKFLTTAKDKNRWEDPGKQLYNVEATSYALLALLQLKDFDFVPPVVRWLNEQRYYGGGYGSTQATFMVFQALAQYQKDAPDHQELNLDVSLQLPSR
T1 sequence (P01024 1321-1663 limits assumed, chain 3 of 3): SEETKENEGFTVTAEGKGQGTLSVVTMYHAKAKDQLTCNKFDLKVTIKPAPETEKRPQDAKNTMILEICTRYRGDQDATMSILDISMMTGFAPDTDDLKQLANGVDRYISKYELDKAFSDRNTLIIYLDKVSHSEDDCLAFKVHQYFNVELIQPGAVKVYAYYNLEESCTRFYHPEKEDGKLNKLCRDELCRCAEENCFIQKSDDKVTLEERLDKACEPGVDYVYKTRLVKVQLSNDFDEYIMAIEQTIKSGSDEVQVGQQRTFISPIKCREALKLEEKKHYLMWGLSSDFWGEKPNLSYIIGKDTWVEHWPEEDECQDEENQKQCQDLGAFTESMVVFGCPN

B1: humanized 5D2 version H1L1 (antibody, V domains shown)
VH: EVQLQQSGAEVKKPGASVKVSCKASGYTFTDNYYMNWVRQAPGQSLEWMGHIYPNNGVTSYNQKFRGRVTLTRDKSINTAYMELSSLTSEDTALYYCARNKLLSLYWYFDVWGQGTLVTVSS
VL: DIQMTQSPSSLSASVGDRVTITCRASVDIYNRLAWFQQKPGKAPKLLISGATSLATGVPSRFSGSGSGKDYTLTISSLQPEDFATYYCQQYWSTPWTFGGGTKLEIKR
notes: also called 5D2 H1L1
As to B1, in [1], the binding result is given as “binds”.

B2: humanized 5D2 version H2L1 (antibody, V domains shown)
VH: B1 VH with L71I, L94V
VL: B1 VL
notes: also called 5D2 H2L1
On to B2, for which the binding result in test [1] is given as “binds”.

B3: chimeric 6G1 (antibody, V domains shown)
VH: QIQLVQSGPELKKPGETVKISCKASGYTFTNYGMNWVKQAPGKDLKWMGWINTYTGEPRYADEFKGRFAFSLETSASTAYLQINNLKNEDMATYFCAKGGYPHYYSMDYWGQGTSVTVSS
VL: DIQMTQSTSSLSASLGDRVTISCRASQDINNYLNWYQQKPDGTIKLLIYYTSKLHSGVPSRFSGSGSGRDYSLTISNLEQEDIATYFCQQGNTLPRTFGGGTKLEIKR
notes: also called chi-6G1
For the molecule B3, the “EC50 (read off the curve)” value in test [2] was around 0.08 µg/mL.

B4: mouse monoclonal antibody 6G1 (antibody, V domains shown)
VH: B3 VH
VL: B3 VL
notes: Mouse hybridoma antibody; also called m6G1
With B4, in [3], the “fold difference in KD, iC3b relative to C3” value is above 10 fold. Besides, the “fold higher affinity constant for iC3b than C3b” value (“fold higher affinity constant” for short) in test [4] is at least 10 fold. For the same molecule, the “fold specificity for iC3b vs. C3 or C3b” value in [5] is above 2 fold. Moreover, in test [6], binding was characterised by a dissociation constant (Kd) of 43.3 nM and the kon came out at 98000 M⁻¹ s⁻¹. In test [7], the koff was 0.028 s⁻¹ and the kon was determined as 13000 M⁻¹ s⁻¹. This molecule yielded a Kd in [8] of 2100 nM.

B5: mouse monoclonal antibody 2H8r (antibody, V domains shown)
VH: B3 VH with D44G, R59T, E63D
VL: B3 VL with S7T, N30S, I44V, K53R, R69T, N92K
notes: also called m2H8r
As for B5, the results for the “fold higher affinity constant” value in test [4] and in test [9] were at least 10 fold and at least 2 fold, respectively.

B6: humanized 6G1 version H3L3 (antibody, V domains shown)
VH: QVQLVQSGSELKKPGASVKVSCKASGYTFTNYGMNWVKQAPGQDLKWMGWINTYTGEPRYADEFKGRFVFSLDTSVSTAYLQISSLKAEDTATYYCARGGYPHYYSMDYWGQGTTVTVSS
VL: DIQMTQSPSSLSASVGDRVTITCRASQDINNYLNWYQQKPGKTPKLLIYYTSKLHSGVPSRFSGSGSGRDYILTISSLQPEDIATYYCQQGNTLPRTFGGGTKVEIKR
notes: Only variable regions are tied to it; also called Hu6G1 H3L3
Turning to B6, in test [2], the “EC50 (read off the curve)” value is around 0.08 µg/mL.

B7: humanized 6G1 version H1L2 (antibody, V domains shown)
VH: B6 VH with K38R, D44G
VL: B6 VL with L73F
notes: H1 = 6G1 Hu v1 heavy, L2 = 6G1 Hu v2 light
B7: in [2], the “EC50 (read off the curve)” value is around 0.1 µg/mL.

B8: humanized 6G1 version H3L5 (antibody, V domains shown)
VH: B6 VH
VL: B6 VL with Y87F
notes: H3 = 6G1 Hu v3 heavy, L5 = 6G1 Hu v5 light
As for B8, the binding result in test [2] is “binds”.

B9: huH1L5 (antibody, V domains shown)
VH: B6 VH with K38R, D44G
VL: B6 VL with Y87F
notes: also called humanized 6G1 version H1L5
For the molecule B9, the binding result in [2] is “binds”.

B10: mouse monoclonal antibody 5D2 (antibody, IgG1, V domains shown)
VH: EVQLQQSGPELVKPGASVKISCKASGYTFTDNYYMNWVKQSHGKSLEWIGHIYPNNGVTSYNQKFRGKATLTVDKSSNSAYMELRSLTSEDSALYYCARNKLLSLYWYFDVWGTGTSVTVSS
VL: DIQMTQSSSSFSVFLGDRITITCRASVDIYNRLAWFQQKPGNAPRLLISGATSLATGVPSRFSGSGSGKDYTLSITSLQTEDVTIYYCQQYWSTPWTFGGGTKLEIKR
notes: also called m5D2
For the molecule B10, in test [4], the “fold higher affinity constant” value is at least 10 fold. In addition, the “fold specificity for iC3b vs. C3 or C3b” value in test [5] was above 2 fold.
